{"source": "patent US20180148718", "target": "Hsp90alpha (UniProt P07900)", "experiment": "FP filter", "settings": "5-10-5 gapmer, cEt wings 1-5 and 16-20, 2'-deoxy gap, all C 5mC, full PS; nitrocellulose double-filter binding, printed as binding constant", "data": [{"sequence": "CTGCTAGCCTCTGGATTTGA [Isis 586183 (PS/cEt)]", "values": [{"measurement": "Kd", "value": 0.0197, "unit": "µM"}]}]}
